Laboratory results reported in the supplement of paper PMC12764529.
± gives the half width of the 95% confidence interval.

Key:
[1] = folding stability dG unfold (combined trypsin and chymotrypsin); higher = more stable
In short: (§1)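 Digests were run with trypsin and chymotrypsin at 11 concentrations in threefold dilutions, plus a no-protease condition, on designed mini-proteins in a PA-tagged cDNA display construct. The mini-proteins were under 80 residues, had no cysteine, and were kept only when AlphaFold2 dimer inter-PAE was above 15. After sequencing, Bayesian fitting of the counts gave K50, from which unfolding free energy was derived against a sequence-predicted unfolded-state K50 and a shared folded-state K50, per protease or combined.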

[2] = folding stability dG unfold from chymotrypsin proteolysis; higher = more stable
In short: as §1

[3] = folding stability dG unfold from trypsin proteolysis; higher = more stable
In short: as §1

Row | Sequence | folding stability dG unfold [1] | folding stability dG unfold [2] | folding stability dG unfold [3]
1 | SKEVKVKVKVVAPFYNKTKPFPLNIEVEVTVSSSNPELSPEKLTPENLAKIAAEKAREILLKLGIPEEFLSA [r9_516_TrMRF] | 2.86 ± 0.34 kcal/mol | 3.09 ± 0.14 kcal/mol | 2.63 ± 0.14 kcal/mol
2 | SAGGKWIMFMIPPGEEIEDPNGLEIRYDPEEGEFEIENNKRPVKIPVHPHPDGWYMITIEIPPGVEVSAGGS [r16_245_TrROS] | 1.55 ± 0.22 kcal/mol | 1.12 ± 0.23 kcal/mol | 1.5 ± 0.074 kcal/mol
3 | SAGGIELTIPLPNGMLIKIKIESIHIQPVPVWRKKKDPDGKPKDWEPQPFTFSISIRFSIEIYDPDDLSAGG [r13_848_TrROS] | 4.97 ± 0.35 kcal/mol | 5.07 ± 0.16 kcal/mol | 3.47 ± 0.2 kcal/mol
4 | SAGGSAGGSAGGEKVVVPPPEVELRLERREDGYVRLYARNKDGEWEEVAVFKVSPEELELSAGGSAGGSAGG [r7_659_TrROS_Hall] | 3.37 ± 0.32 kcal/mol | 3.77 ± 0.13 kcal/mol | 3.09 ± 0.19 kcal/mol
5 | SAGGSAGGKKLTAEELAKKLKELIPDVEKVEIVSVDKKTKKVTIKVKTKKEKEKIKEALKELLKSAGGSAGG [r6_635_TrROS_Hall] | 0.65 ± 0.1 kcal/mol | 0.816 ± 0.048 kcal/mol | 0.56 ± 0.064 kcal/mol
6 | SAGGKKVVITLTAEELEELLKEGKPLTAEEIARRLLPPGAKVTVEVTYDPETKEVTVTVVIEVPEELESAGG [r13_862_TrROS_Hall] | 2.22 ± 0.12 kcal/mol | 2.16 ± 0.21 kcal/mol | 2.27 ± 0.13 kcal/mol
7 | SAMKFKITEVKIISVEKKKDGKKTIVIEMKVEKGEEKITIEFDKNGKIKKVSVEKLPDGKTVRVTIEIDSAG [r14_189_TrROS_Hall] | 2.52 ± 0.49 kcal/mol | 2.95 ± 0.087 kcal/mol | 1.49 ± 0.28 kcal/mol
8 | SAGGPKITIMWPEGMPPEELENFLKKLNPNYKVEYRPMPPEDMKDMPPGDVVISIPFDGRYWYLRIKPSAGG [r13_649_TrROS] | 1.88 ± 0.081 kcal/mol | 1.99 ± 0.095 kcal/mol | 1.65 ± 0.048 kcal/mol
9 | SASMSPEELIEIEIELKRGNRNFTLKIKIPVGLSEEEIEEAIEKAKKELEEKVKKLEEEPPLNPENNLISAG [r14_70_JUSTAS] | 3.11 ± 0.12 kcal/mol | 3.45 ± 0.06 kcal/mol | 2.33 ± 0.17 kcal/mol
10 | SSSMPVTVEIEAKKLSNGKYLAKITVKDANGNELEEYEKEMDESEVEKLKEELKKKYPNMKVTMTYKDELSA [r9_374_JUSTAS] | 4.17 ± 0.45 kcal/mol | 4.17 ± 0.14 kcal/mol | 3.3 ± 0.34 kcal/mol
11 | SAGKPVLLKIEIEVKVNGKTVKLELEILVEPGETIEELLAALPGVEEVKIKIEPISLEELEELKKKKPSAGG [r19_339_TrROS_Hall] | 1.53 ± 0.3 kcal/mol | 1.88 ± 0.059 kcal/mol | 0.867 ± 0.23 kcal/mol
12 | SAGGSAGGSPMVVFEFKIKDPKIRKAIDEAKKDGDKSAEIPFPNGWPIRITEIEDNYIRITIWSAGGSAGGS [r12_334_TrROS] | 1.69 ± 0.2 kcal/mol | 2.18 ± 0.14 kcal/mol | 1.17 ± 0.058 kcal/mol
13 | SAGGSAGGSARIYVTLPDGTVLEVEFEGEEEAERVAEEIEAELKEKGIEPKSITIEPVSPEEGSAGGSAGGS [r12_301_JUSTAS] | 1.27 ± 0.16 kcal/mol | 1.69 ± 0.075 kcal/mol | 0.723 ± 0.053 kcal/mol
14 | SAGGSAGGSAGGMKKYKITVYDEKTGEKHTIEIEMSEEELEELAKKLAEKHNVKVRIEKVSAGGSAGGSAGG [r7_562_TrROS_Hall] | 3.91 ± 0.062 kcal/mol | 4.27 ± 0.052 kcal/mol | 2.73 ± 0.095 kcal/mol
15 | SAGGSAGGSAGGKKYKITVPFKTKDGSGKPITSNFGKKKLEEILKKHPELKPAIEKALKKSAGGSAGGSAGG [r7_637_TrMRF] | 0.771 ± 0.29 kcal/mol | 1.37 ± 0.22 kcal/mol | -0.163 ± 0.33 kcal/mol
16 | PIIHFRSPEDAEDFVKELVKKIAKEARKNGDPGQPYEIKIPVVWHDEDSGGPHRFPIEIEIRPDGDIKLTFS [r1_316_TrROS] | 1.42 ± 0.062 kcal/mol | 1.76 ± 0.088 kcal/mol | 0.782 ± 0.02 kcal/mol
17 | SAGGSALPPDAPFTVEREVPFTLPDGALVTLYYNPETGTVLVRFYPPDGGEVRVEAKAEEALALLSSAGGSA [r15_2_TrMRF] | 1.31 ± 0.039 kcal/mol | 1.34 ± 0.06 kcal/mol | 1.17 ± 0.019 kcal/mol
18 | SAGKNWYIQIQIEHRDPDGKPKREIPIIIEANPGDPEAFERALEFAERIAEKLHPPGHRVEINVTLFPYSAG [r5_793_TrROS] | 2.43 ± 0.17 kcal/mol | 2.17 ± 0.1 kcal/mol | 2.73 ± 0.23 kcal/mol
19 | SVEEFRELLPDAVIEAEPLSPDRLLIRLYVPEDPEKLNPLAERVRELAEEIERETGLPVLIEIIPVPPESSA [r9_1099_TrMRF] | 1.41 ± 0.028 kcal/mol | 1.27 ± 0.014 kcal/mol | 1.53 ± 0.033 kcal/mol
20 | SAGGSAKIKIITENGEELEIEVETKEELEKAVEALKKLLPPDAEIEVEVVEKDGKLIVKIKVKKKPSAGGSA [r15_80_TrROS_Hall] | 1.85 ± 0.31 kcal/mol | 2.17 ± 0.12 kcal/mol | 1.54 ± 0.13 kcal/mol
21 | SAGGPEVVLTVTVKVPPEMTPEEVAQRLADELRKKYPDLKVEVVSVEYDEETKEVTVTIRVTYAPPPSAGGS [r8_26_TrROS_Hall] | 4.45 ± 0.14 kcal/mol | 4.05 ± 0.16 kcal/mol | 4.97 ± 0.64 kcal/mol
